Measurements published in paper PMC4705532, ““Click on the bidirectional switch”: the aptasensor for simultaneous detection of lysozyme and ATP with high sensitivity and high selectivity”.

B1: Lapt (lysozyme aptamer) (ssDNA)
DNA: ATCTACGAATTCATCAGGGCTAAAGAGTGCAGAGTTACTTAGACCTTCCTCCGCAATACTCCCCCAGGTT
B2: Lapt≈Aapt duplex (with methyl violet) (dsDNA)
DNA 1: B1 DNA
DNA 2: AACCTGGGGGAGTATTGCGGAGGAAGGTCTAAGTAACTCTGCACTCTTTAGCCCTGATGAATTCGTAGAT

What was measured:
lysozyme [1] = target: T1, lysozyme (UniProt P00698 19-147); experiment: resonance light scattering; 10 mM Tris pH 7.4, 2.0 uM methyl violet (duplex sensor), target binding 20 min at 37 °C; salt not stated; settings: protein: commercial
thrombin = thrombin (UniProt P00734;P00734 328-363;364-622); experiment: resonance light scattering; 2.0 uM methyl violet; 100-fold excess; 10 mM Tris pH 7.4, 2.0 uM methyl violet (duplex sensor), target binding 20 min at 37 °C; salt not stated
ovalbumin = ovalbumin (UniProt P01012 2-386); experiment: as above; settings: protein: commercial; blunt
papain = target: T2, papain (UniProt P00784 134-345); experiment: as above; settings: protein: commercial; blunt
T2 sequence: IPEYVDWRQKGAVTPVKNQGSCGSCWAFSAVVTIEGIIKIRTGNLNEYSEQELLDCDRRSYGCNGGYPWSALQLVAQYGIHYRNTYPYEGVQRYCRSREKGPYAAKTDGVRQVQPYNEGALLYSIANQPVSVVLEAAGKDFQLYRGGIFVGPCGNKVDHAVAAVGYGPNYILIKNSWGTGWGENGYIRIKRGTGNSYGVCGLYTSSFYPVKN

lysozyme [2] = target: T1, lysozyme; experiment: resonance light scattering; 2.0 uM methyl violet; lysozyme said to open the duplex and bind Lapt; 10 mM Tris pH 7.4, 2.0 uM methyl violet (duplex sensor), target binding 20 min at 37 °C; salt not stated; settings: protein: commercial; blunt

T1 sequence (P00698 19-147): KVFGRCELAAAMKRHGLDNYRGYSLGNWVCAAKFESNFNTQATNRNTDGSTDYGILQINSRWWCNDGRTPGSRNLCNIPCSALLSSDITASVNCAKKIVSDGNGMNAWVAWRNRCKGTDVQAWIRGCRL
ovalbumin, sequence (P01012 2-386): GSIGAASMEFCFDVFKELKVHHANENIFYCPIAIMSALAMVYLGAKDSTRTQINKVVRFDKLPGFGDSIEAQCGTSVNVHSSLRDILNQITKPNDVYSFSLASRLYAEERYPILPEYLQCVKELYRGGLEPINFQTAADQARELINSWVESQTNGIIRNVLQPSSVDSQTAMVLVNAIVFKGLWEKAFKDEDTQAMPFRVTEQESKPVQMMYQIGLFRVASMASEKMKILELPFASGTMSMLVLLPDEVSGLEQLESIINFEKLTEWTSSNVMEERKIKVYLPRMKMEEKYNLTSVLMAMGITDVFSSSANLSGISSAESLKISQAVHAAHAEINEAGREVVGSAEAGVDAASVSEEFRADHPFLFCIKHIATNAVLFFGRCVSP

| Binder | binding result (lysozyme [1]) | binding result (thrombin) | binding result (ovalbumin) | binding result (papain) | binding result (lysozyme [2]) |
| --- | --- | --- | --- | --- | --- |
| B1 | binds | – | – | – | – |
| B2 | – | no binding | no binding | no binding | binds |
